The values that follow come from publication PMC4894398, “Efficient Demyristoylase Activity of SIRT2 Revealed by Kinetic and Structural Studies” (Scientific Reports, 2015).

No end group written: not given here.

Experiment [1] deals with SIRT2 (residues 38–356 of the full-length human SIRT2) (human) (UniProt Q8IXJ6).
In experiment [2] the target is T1, SIRT2 (residues 38–356 of the full-length human SIRT2) (human, UniProt Q8IXJ6 38-356).
T1 construct: NAD-dependent protein deacylase sirtuin-2 (SIRT2), human, residues 38-356 of the full-length protein; Cloned into pET28b(+) with an N-terminal hexahistidine and sumo tag; The tag was cut off by Ulp1 and removed on a second Ni-NTA column; source: E. coli BL21 (DE3), purified (Ni-NTA, Ulp1 cleavage, second Ni-NTA, Superdex G200); not shown: His6, N-terminal, cleaved; SUMO, N-terminal, cleaved
T1 sequence (looked up): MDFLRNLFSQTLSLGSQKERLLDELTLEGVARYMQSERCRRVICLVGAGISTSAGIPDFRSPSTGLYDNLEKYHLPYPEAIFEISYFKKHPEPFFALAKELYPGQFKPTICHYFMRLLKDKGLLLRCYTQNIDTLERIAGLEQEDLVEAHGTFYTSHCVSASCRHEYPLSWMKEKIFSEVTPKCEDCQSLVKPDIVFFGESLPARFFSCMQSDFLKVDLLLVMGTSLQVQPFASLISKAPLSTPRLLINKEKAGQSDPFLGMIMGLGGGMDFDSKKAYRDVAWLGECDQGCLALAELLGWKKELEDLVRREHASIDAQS
Briefly: crystal structure; 10 mg/mL SIRT2 in 20 mM Tris, 50 mM NaCl, pH 7.5 preincubated on ice with 10 mM BHJH-TM1 for about 1 h; hanging drop, 25% PEG 3350, 0.1 M Hepes pH 7.5; 2.1 Å, two subunits in the asymmetric unit. Particulars: both partners purified.

For the molecule “H3K9 myristoyl peptide (histone H3 Lys9 peptide bearing a myristoyl group)”, the Km of demyristoylation of the H3K9 myristoyl peptide by SIRT2 (HPLC kinetics, 0.2 μM SIRT2, 1 mM NAD, 37°C, peptide 0.25-32 μM) in experiment [1] was 0.24 µM.
On to PKK(thiomyristoyl)TG (also called Myr Peptide (PKK(Tmy)TG)) [BHJH-TM1 thiomyristoyl peptide (PKK(TMy)TG)], for which the binding result in experiment [2] is “binds”.
